Source: patent publication US20240174744A1 (SCIRHOM, published 2024)

T1: hiR2-FL-L539A-T7 (human iRhom2 full length L539A, 3 x T7 tag) (human, UniProt Q6PJF5 1-856)
T1 sequence: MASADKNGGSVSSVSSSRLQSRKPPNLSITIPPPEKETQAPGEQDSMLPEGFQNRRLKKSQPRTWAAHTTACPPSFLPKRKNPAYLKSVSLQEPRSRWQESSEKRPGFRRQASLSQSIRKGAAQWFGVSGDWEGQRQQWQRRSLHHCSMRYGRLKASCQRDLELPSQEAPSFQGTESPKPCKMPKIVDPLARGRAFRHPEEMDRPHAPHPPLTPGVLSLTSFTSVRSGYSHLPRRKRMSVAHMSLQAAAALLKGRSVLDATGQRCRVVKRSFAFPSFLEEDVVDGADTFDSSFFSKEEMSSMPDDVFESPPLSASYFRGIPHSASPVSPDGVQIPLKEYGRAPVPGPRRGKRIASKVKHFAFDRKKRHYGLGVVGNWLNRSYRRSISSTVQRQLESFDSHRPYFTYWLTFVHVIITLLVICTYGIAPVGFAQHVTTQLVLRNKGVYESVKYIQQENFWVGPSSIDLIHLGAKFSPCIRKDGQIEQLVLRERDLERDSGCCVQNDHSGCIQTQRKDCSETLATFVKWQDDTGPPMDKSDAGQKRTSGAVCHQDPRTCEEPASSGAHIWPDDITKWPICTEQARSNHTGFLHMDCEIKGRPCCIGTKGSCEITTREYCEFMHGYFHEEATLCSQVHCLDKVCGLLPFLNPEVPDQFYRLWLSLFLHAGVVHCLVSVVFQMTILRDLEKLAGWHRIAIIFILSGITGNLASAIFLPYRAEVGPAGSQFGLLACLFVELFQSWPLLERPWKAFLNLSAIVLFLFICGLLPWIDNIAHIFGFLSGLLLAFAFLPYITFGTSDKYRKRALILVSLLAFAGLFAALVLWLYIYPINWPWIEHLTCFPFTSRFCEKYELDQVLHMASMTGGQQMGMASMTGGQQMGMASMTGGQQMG


Target: T1, hiR2-FL-L539A-T7 (human iRhom2 full …)
Test: FACS on cells of the row L539A, vs human iR2 wild type = 100%
From the text: In brief, immortalized MEF-DKO-hiR2-FL-G498A-T7, MEF-DKO-hiR2-FL-Q502R-T7, MEF-DKO-hiR2-FL-I509V-T7, MEF-DKO-hiR2-FL-Q512S-T7, MEF-DKO-hiR2-FL-R513E-T7, MEF-DKO-hiR2-FL-K514E-T7, MEF-DKO-hiR2-FL-D515E-T7, MEF-DKO-hiR2-FL-E518S-T7, MEF-DKO-hiR2-FL-T522V-T7, MEF-DKO-hiR2-FL-F523W-T7, MEF-DKO-hiR2-FL-Q527P-T7, MEF-DKO-hiR2-FL-D528I-T7, MEF-DKO-hiR2-FL-D529H-T7, MEF-DKO-hiR2-FL-T530P-T7, MEF-DKO-hiR2-FL-G531S-T7, MEF-DKO-hiR2-FL-P532A-T7, MEF-DKO-hiR2-FL-M534-T7, MEF-DKO-hiR2-FL-D535-T7, MEF-DKO-hiR2-FL-K536-T7, MEF-DKO-hiR2-FL-S537E-T7, MEF-DKO-hiR2-FL-D538L-T7, MEF-DKO-hiR2-FL-L539A-T7, MEF-DKO-hiR2-FL-Q541H-T7, MEF-DKO-hiR2-FL-T544Q-T7, MEF-DKO-hiR2-FL-S545F-T7, MEF-DKO-hiR2-FL-A547S-T7, MEF-DKO-hiR2-FL-T555V-T7, MEF-DKO-hiR2-FL-E557D-T7, MEF-DKO-hiR2-FL-A560S-T7 and MEF-DKO-hiR2-FL-S562E-T7 cells were harvested with 10 mM EDTA in PBS, washed and resuspended in FACS buffer (PBS, 3% FBS, 0.05% sodium azide), and seeded in Nunc U-bottom 96-well plates (Thermo Fisher Scientific, USA) at approximately 3×10⁵ cells per well. To pellet cells and remove supernatants, the plates were centrifuged at 1,500 rpm and 4° C. for 3 minutes. For primary staining, cells were resuspended in 100 μl per well of either FACS buffer alone (controls) or the purified antibodies 3, 5, 16, 22, 34, 42, 43, 44, 48, and 50 of the present disclosure at 3 μg/ml in FACS buffer and incubated on ice for 1 hour. Afterwards, plates were centrifuged at 1,500 rpm and 4° C. for 3 minutes and washed twice with 200 μl per well of FACS buffer. For secondary staining, cells were spun down and resuspended in 100 μl per well of PE-conjugated goat anti-mouse IgG F(ab′)2 detection fragment (Dianova, Germany) diluted 1:100 in FACS buffer. Protected from light, the cell suspensions were incubated on ice for 1 hour. Plates were then centrifuged at 1,500 rpm and 4° C. for 3 minutes and washed three times with 200 μl per well of FACS buffer. Finally, cells were resuspended in 150 μl per well of FACS buffer and analyzed using a BD Accuri™ C6 Plus flow cytometer (Becton Dickinson, Germany).

| Binder | grade of loss of binding vs wild type |
| --- | --- |
| antibody 3 (antibody, V domains shown, Mouse IgG, kappa light chain; also called clone #3; purified antibody 3) VH: QVTLKESGPGILQPSQTLSLTCSFSGFSLTTFAMGIGWVRQPSGKGLEWLAHIWWDGEKYNNPVLKSRLTISKDTSKNQVFLRIANVDTPDTATYYCARISSIYYIIDNWGQGTSVTVSS VL: DIVLTQSPATLSVTPGHSVSLSCRASQSISNNLHWYQKKSHESPRLLIKYVSQSISGIPSRFSGSGSGTDFTLSINSVETEDFGMYFCQQSYNWPLTFGAGTKLELK | 3 grade (3 => 95% loss of binding vs wild type) |
| antibody 34 (antibody, V domains shown, Mouse IgG, kappa light chain; also called clone #34; m34) VH: QVTLKESGPGILQPSQTLSLTCSFSGFSLSTFSLGVGWIRQSSGKGLEWLAHIWWDDEKYYNPALKSRLTISKDTSKNQVFLKIANVDAADTATYYCARAYYSKSYYALDYWGQGTSVTVSS VL: DIQMTQSPSSLSASLGERVSLTCRASQEISGYLSWLQQKPDGTIKRLIYAASTLDSGVPKRFSGSRSGSDYSLAISSLESEDFADYYCLQYANFPFTFGSGTKLEIK | 3 grade (3 => 95% loss of binding vs wild type) |
| antibody 43 (antibody, V domains shown, Mouse IgG, kappa light chain; also called clone #43) VH: QVALKESGPGILQPSQTLSLTCSFSGFSLSTFGMGVGWIRQSSGKGLEWLANIWWDDDKYYNPALKSRLTISKDASKNQAFLKIANVDTADTATYYCARIGNYGSNYWYFDVWGTGTTVTVSS VL: QIVLTQSPAIMSASPGERVTMTCSANSRISYMYWYQQKPGSSPRLLIYDTSNLASGVPVRFSGSGSGTSYSLTISRMEAEDAATYNCQQWSSYPLTFGAGTKLELK | 3 grade (3 => 95% loss of binding vs wild type) |
| antibody 44 (antibody, V domains shown, Mouse IgG, kappa light chain; also called clone #44; m44) VH: QVTLKESGPGILQPSQTLSLTCSFSGFSLSTFGMGVGWIRQPSEKGLEWLAHIWWDDDKYYNPALKSRLTISKDTSKNQIFLKITNVDTAETATYYCSRIGNYGSNYWYFDVWGTGTTVTVSS VL: QIVLTQSPAVMSASPGEKVTMTCTASSSVYYMYWYQQTPGSSPRLLIYDTSNLASGVPVRFSGSGSGTSYSLTISRMEAEDAATYYCQQWNTYPLTFGAGTKLELK | 3 grade (3 => 95% loss of binding vs wild type) |
| antibody 42 (antibody, V domains shown, Mouse IgG, kappa light chain; also called clone #42; m42) VH: QVTLKESGPGILQPSQTLSLTCSLSGFSLSTFGRGVGWIRQPSGKGLEWLAHIWWDDEKYYNPALKSRLTISKDTSKNQVFLRIANVDTADTATYYCARIQNYGSNYWYFDVWGTGTTVTVSS VL: LIVLTQSPAIMSASPGEKVTMTCGATSRISYMFWYQQKPGSSPRVLIYDTSNLASGVPVRFSGSGSGTSYSLTISRVEAEDVATYYCQQWNSYPLTFGAGTKLELK | 3 grade (3 => 95% loss of binding vs wild type) |
| antibody 5 (antibody, V domains shown, Mouse IgG, kappa light chain; also called clone #5; purified antibody 5) VH: QVTLKESGPGILQPSQTLSLTCSFSGFSLSTFGMGVGWIRQPSGKGLEWLAHIWWDDEKYYNSALKSRLTISKATSKNQAFLKIANVDTADTATYYCARISNYGSNYWYFNVWGTGTTVTVSS VL: QVVLTQSPALMSASPGEKVTMTCSAGSSVSCMYWYQQKPGSSPRVLIYDTSNLASGVPARFTGSGSGTSYSLTISRMEAEDAASYYCQQWNSYPLTFGAGTKLELK | 3 grade (3 => 95% loss of binding vs wild type) |
| antibody 22 (antibody, V domains shown, Mouse IgG, kappa light chain; also called clone #22; m22) VH: QVTLKESGPGILQPSQTLSLTCSFSGFSLSTFGMGVGWIRQPSGKGLEWLAHIWWDDEKYYNSALKSRLTISKATSKNQVFLKIANVDTADTATYYCARISNYGSNYWYFNVWGTGTTVTVSS VL: QVVLTQSPALMSASPGEKVTMTCSAGSSVSYMYWYQQKPGSSPRVLIYDTSNLASGVPARFTGSGSGTSYSLTISRMEAEDAATYYCQQWNSYPLTFGAGTKLELK | 3 grade (3 => 95% loss of binding vs wild type) |
